Source: PMC11602157, “ZNF512B binds RBBP4 via a variant NuRD interaction motif and aggregates chromatin in a NuRD complex-independent manner” (Nucleic Acids Research, 2024)
Substitutions are numbered along the chain they refer to. In names and notes the source's numbering stands.

Legend:
[1] = system: DNA (sequence derived from the mouse H19 promoter); test: EMSA; assay type: binding; settings: purified recombinant protein, unmethylated or methylated oligos, 300 ng salmon sperm DNA competitor
Procedure: Expression and purification of recombinant His-ZNF512B protein was done as described ([32]). Briefly, pFastBac1 vectors were transformed into DH10Bac bacteria and viruses were generated according to the Bac-to-Bac™ Baculovirus Expression System Protocol (Invitrogen). Extracts were prepared 3 days after infection by washing the cells twice with ice cold PBS and incubation on ice for 10 min in hypotonic buffer (10 mM HEPES-KOH pH 7.9, 1.5 mM MgCl2, 10 mM KCl). After brief vortexing and centrifugation, the pellet (nuclei) was incubated for 20 min in hypertonic buffer (20 mM HEPES-KOH pH 7.9, 25% glycerol, 420 mM NaCl, 1.5 mM MgCl2, 0.2 mM EDTA). After centrifugation for 10 min at 16 000 × g the supernatant was stored at −20°C or directly used for electrophoretic mobility shift assays (EMSAs). Alternatively, the supernatant was purified by FPLC using the Äkta Start (Cytiva) via a His-Trap column (71502768) by standard procedures outlined in the instructions of the manufacturer.
EMSAs were performed as originally described ([34]) with the exception that 300 ng of salmon sperm DNA per reaction were used as an unspecific competitor. […]

[2] = system: 4xUAS-tk-luc reporter in HEK293T cells; test: Luciferase reporter assay; assay type: cell-based; settings: GAL fusion, 72 h, three biological replicates
Procedure: Per well of a 6-well plate, 1.5 × 10^5 HEK293T cells were seeded and transfected on the next day using 1 μg of 4xUAS-tk-luc reporter plasmid, 0.5 μg GAL expression vector and 0.5 μg pCMV-lacZ vector for normalization. Cells were directly lysed in well after 72 h with 200 μl Lysis buffer (25 mM Tris/Cl pH 7.5, 8 mM MgCl2, 1 mM EDTA, 1% Triton™ X-100, 15% glycerin, 1 mM DTT) for 15 min at RT. Supernatants were used to measure luciferase activity by mixing 100 μl 1:1 with 90 mg/L D-Luciferin/0.8 mM ATP and quantifying emitted light after 5 s incubation with an Orion L plate reader (Titertek-Berthold). Values were normalized to β-galactosidase activity by adding 5 μL supernatant to 900 μl LacZ buffer (50 mM Na2HPO4, 10 mM KCl, 0.1 mM MgSO4, pH 7) and 100 μl 4 g/L OPNG/0.1 M KPO4. When a color change of the mixture occurred, absorbance at 420 nm was measured.

[3] = system: NuRD complex members; test: lf-qMS after GFP-Trap IP; assay type: binding; settings: GFP-Trap IP vs GFP
Procedure: Preparation of Micrococcal nuclease (MNase)-digested nuclear extracts was performed as previously described ([15–17],[32]). Briefly, nuclei were isolated by incubation with PBS containing 0.3% Triton™ X-100 for 10 min at 4°C and washed in PBS, before being resolved in 500 μl freshly prepared Ex100 buffer (10 mM HEPES pH 7.6, 100 mM NaCl, 1.5 mM MgCl2, 0.5 mM EGTA, 10% glycerol, 10 mM β-glycerol phosphate, 1 mM Dithiothreitol (DTT), 2 mM CaCl2). Chromatin was then digested with 1.5 U MNase (sufficient for 4 × 10^7 cells, Sigma-Aldrich) for 20 min at 26°C. Digestion was stopped by adding 10 mM EGTA and transferring the sample to 4°C. […]
For label-free quantitative mass spectrometry (lf-qMS), precipitated proteins were eluted by incubation of beads with Elution Buffer (2 M urea, 50 mM Tris/Cl pH 7.5, 2 mM DTT, 20 μg/ml Trypsin Gold [Promega]) for 30 min at 37°C shaking at 1400 rpm in the dark. […]
After tryptic digest (see MNase IP), peptides were desalted on StageTips ([36]) and analysed by nanoflow liquid chromatography on an EASY-nLC 1000 system (Thermo Fisher Scientific) coupled online to a Q Exactive Plus mass spectrometer (Thermo Fisher Scientific). […]
The raw files were processed with MaxQuant ([37]) (version 1.6.5.0) against a human uniprot database (81194 entries). […] The match between run option and the LFQ quantitation were activated. […]

[4] = system: FLAG-tagged ZNF512B; test: Oligomerization: GFP-Trap IP and FLAG immunoblot; assay type: binding; settings: co-transfection of GFP- and FLAG-tagged ZNF512B constructs, HeLaK cells
Procedure: Preparation of DNase-digested cell extracts and immunoprecipitation was performed using GFP-Trap® Magnetic Particles M-270 (Chromotek) following the manufacturer’s protocol. In brief, cells were incubated for 30 min on ice with RIPA buffer (10 mM Tris/Cl pH 7.5, 150 mM NaCl, 0.5 mM EDTA, 0.1% SDS, 1% Triton™ X-100, 1% deoxycholate) supplemented with DNase I (75 Kunitz U/ml, Thermo Fisher Scientific) and MgCl2 (2.5 mM). After centrifugation at 17 000 × g for 10 min at 4°C, lysate was transferred to a fresh tube and mixed with Dilution buffer (10 mM Tris/Cl pH 7.5, 150 mM NaCl, 0.5 mM EDTA). Lysate was then incubated with GFP-Trap® Magnetic Particles M-270 rotating for 1 h at 4°C. For peptide competition, lysate was incubated with peptide solution rotating for 1 h at 4°C before incubation with beads. After incubation, beads were washed three times with Wash buffer (10 mM Tris/Cl pH 7.5, 150 mM NaCl, 0.05% Nonidet™ P-40 Substitute, 0.5 mM EDTA), and precipitated proteins were eluted by boiling beads for 5 min in 2× SDS-sample buffer. Eluates were compared to input material via semi-dry western blotting. Details on applied antibodies and peptides are listed in the Supplementary Data.

B1: His-ZNF512B: purified recombinant His-ZNF512B protein (protein, UniProt Q96KM6 1-892, looked up)
Zinc finger protein 512B: MTDPFCVGGRRLPGSSKSGPGKDGSRKEVRLPMLHDPPKMGMPVVRGGQTVPGQAPLCFDPGSPASDKTEGKKKGRPKAENQALRDIPLSLMNDWKDEFKAHSRVKCPNSGCWLEFPSIYGLKYHYQRCQGGAISDRLAFPCPFCEAAFTSKTQLEKHRIWNHMDRPLPASKPGPISRPVTISRPVGVSKPIGVSKPVTIGKPVGVSKPIGISKPVSVGRPMPVTKAIPVTRPVPVTKPVTVSRPMPVTKAMPVTKPITVTKSVPVTKPVPVTKPITVTKLVTVTKPVPVTKPVTVSRPIVVSKPVTVSRPIAISRHTPPCKMVLLTRSENKAPRATGRNSGKKRAADSLDTCPIPPKQARPENGEYGPSSMGQSSAFQLSADTSSGSLSPGSRPSGGMEALKAAGPASPPEEDPERTKHRRKQKTPKKFTGEQPSISGTFGLKGLVKAEDKARVHRSKKQEGPGPEDARKKVPAAPITVSKEAPAPVAHPAPGGPEEQWQRAIHERGEAVCPTCNVVTRKTLVGLKKHMEVCQKLQDALKCQHCRKQFKSKAGLNYHTMAEHSAKPSDAEASEGGEQEERERLRKVLKQMGRLRCPQEGCGAAFSSLMGYQYHQRRCGKPPCEVDSPSFPCTHCGKTYRSKAGHDYHVRSEHTAPPPEEPTDKSPEAEDPLGVERTPSGRVRRTSAQVAVFHLQEIAEDELARDWTKRRMKDDLVPETARLNYTRPGLPTLNPQLLEAWKNEVKEKGHVNCPNDCCEAIYSSVSGLKAHLASCSKGAHLAGKYRCLLCPKEFSSESGVKYHILKTHAENWFRTSADPPPKHRSQDSLVPKKEKKKNLAGGKKRGRKPKERTPEEPVAKLPPRRDDWPPGCRDKGARGSTGRKVGVSKAPEK
modifications: His tag
notes: purified recombinant His-ZNF512B protein
DNA binding [1]: DNA-binding protein (Figure 2F), independent of DNA methylation status

B2: K423A: GAL-ZNF512B with K423A mutation, loss of NuRD binding (protein)
chain: B1 Zinc finger protein 512B with K423A
modifications: left off: GFP, end not stated, kept
repression of luciferase reporter [2]: over 50%

B3: ZNF512B: zinc finger protein 512B; GAL-ZNF512B in the reporter assay, GFP-/FLAG-tagged in pull-downs (protein)
chain: B1 Zinc finger protein 512B
modifications: left off: GFP, end not stated, kept
binding to NuRD complex members by lf-qMS [3]: NIM-dependent binding of ZNF512B to all known NuRD complex members was observed | repression of luciferase reporter [2]: strong repression effect | oligomer formation [4]: able to form oligomers that are strictly dependent on the ZF domains
